# Results as given in publication PMC10248533, “Structures of Get3d reveal a distinct architecture associated with the emergence of photosynthesis” (The Journal of Biological Chemistry, 2023).
# Tests used:
# Test in all cases: EnzChek phosphate release assay (PNP-coupled, A360)
# [1] = substrate: Nc1ncnc2c1ncn2[C@@H]1O[C@H](COP(=O)(O)OP(=O)(O)OP(=O)(O)O)[C@@H](O)[C@H]1O; type: biochemical, Saccharomyces cerevisiae; conditions: 37 °C, pH 7.5, 5 mM MgCl2, 2.5 μM enzyme, 0-2 mM ATP
# [2] = substrate: Nc1ncnc2c1ncn2[C@@H]1O[C@H](COP(=O)(O)OP(=O)(O)OP(=O)(O)O)[C@@H](O)[C@H]1O; type: biochemical, Arabidopsis thaliana; conditions: 37 °C, pH 7.5, 5 mM MgCl2, 15 μM enzyme, 0-2 mM ATP
# [3] = substrate: Nc1ncnc2c1ncn2[C@@H]1O[C@H](COP(=O)(O)OP(=O)(O)OP(=O)(O)O)[C@@H](O)[C@H]1O; type: biochemical, Nostoc sp. PCC 7120 = FACHB-418; conditions: 37 °C, pH 7.5, 5 mM MgCl2, 15 μM enzyme, 0-2 mM ATP
protein,measurement,setting,value
"ScGet3 (yeast Get3) (Saccharomyces cerevisiae S288C) (protein, N-terminal His6-TEV tag (pET33b), expressed in E. coli) MDLTVEPNLHSLITSTTHKWIFVGGKGGVGKTTSSCSIAIQMALSQPNKQFLLISTDPAHNLSDAFGEKFGKDARKVTGMNNLSCMEIDPSAALKDMNDMAVSRANNNGSDGQGDDLGSLLQGGALADLTGSIPGIDEALSFMEVMKHIKRQEQGEGETFDTVIFDTAPTGHTLRFLQLPNTLSKLLEKFGEITNKLGPMLNSFMGAGNVDISGKLNELKANVETIRQQFTDPDLTTFVCVCISEFLSLYETERLIQELISYDMDVNSIIVNQLLFAENDQEHNCKRCQARWKMQKKYLDQIDELYEDFHVVKMPLCAGEIRGLNNLTKFSQFLNKEYNPITDGKVIYELEDKE",Km,[1],48 ± 2 µM
same,kcat,[1],2.7 ± 0.02 min⁻¹
"AtGet3d (Arabidopsis thaliana) (protein, delta1-57 (chloroplast transit peptide removed), expressed in E. coli; ATPase assay: N-terminal His6-3C tag; crystal: pET22b(+) NdeI-XhoI construct; homodimer) TKFVTFLGKGGSGKTTAAVFAAQHYALAGLSTCLVIHNQDPSAEFLLGSKIGTSPTLINDNLSVIRLETTKMLLEPLKQLKQADARLNMTQGVLEGVVGEELGVLPGMDSIFSMLELERLVGFFRQATRKNHKGKPFDVIIYDGISTEETLRMIGLSSKTRLYAKYLRSLAEKTDLGRLTSPSIMRFVDESMNINSNKSPFDGMTSPAMWDTLERFLETGASAWRDPERFRSFLVMDPNNPMSVKAALRYWGCTVQAGSHVSGAFAISSSHLTSQIPKADFVPLPFASASVPFTITGLDWDKILLDQANSSIRELLSETVSHGTSLTQTVMFDTAKKLVTLFMPGFEKSEIKLYQYRGGSELLIEAGDQRRVIHLPSQIQGKVGGAKFVDRSLIVTMR",Km,[2],351 ± 4 µM
same,kcat,[2],1.10 ± 0.01 min⁻¹
"NosGet3d (Nostoc sp. PCC 7120 = FACHB-418) (protein, N-terminal His6-TEV tag (pET33b), expressed in E. coli; homodimer) MALILTFLGKSGVARTKIAIAAAKLLASQGKRVLLAGLAEPVLPLLLEQTLTPDPQQIAPNLEVVQFQSSVLLERNWEEVKKLEAQYLRTPIIKEVYGQELVVLPGMDSALALNAIREYDASGKYDAIVYDGTGDAFTLRMLGLPESLSWYVRRFRQLFVNSDLGKTIAESPLIQPLISSFFNVNWTADNFAQPTNQVNNFLDKGKEALADPKRVAAFLVTTADPLEVVSVRYLWGSAQQIGLTIGGVIQVSSQTEGDLSAEFTPLSVTVVPDVTKGDWQPLIDALPNFVEQAEQAPKPITIDTHNRQVRLFLPGFDKKQVKLTQYGPEVTVEAGDQRRNIFLPPALSGRPITGAKFQNNYLIISF",Km,[3],353 ± 10 µM
same,kcat,[3],0.28 ± 0.01 min⁻¹
